Measurements published in patent publication US20030219846A1, “Assay for activity of the ActRIIB kinase” (Pfizer Inc., priority 2002, published 2003).
Values belong to the molecule of their own block, whether it stands above or below them.

What was measured:
[1] = molecular target: T1, his-catActRIIB kinase (Homo sapiens, UniProt Q13705); experiment: Autoradiographic kinase assay method (substrate phosphorylation); assay type: biochemical; conditions: 1 mg/ml target peptide or 2.5 μM MBP, 10 μM ATP, [32P]-ATP, 30 minutes, ambient temperature
T1 construct: His tag
Description: A 20 μl reaction mixture comprising 2.5 μg/ml his-catActRIIB kinase, 1 mg/ml target peptide or 2.5 μM myelin basic protein (MBP), 10 μM ATP, 10 μCi [^32P]y-ATP (6000 Ci/mmol), 1 mg/ml bovine serum albumin (BSA), and 5 mM sodium orthovanadate in 25 mM HEPES (pH 7.3) was run for 30 minutes at ambient temperature. The reaction was stopped by adding ⅓ volume of 3× Laemmli buffer with β-mercaptoethanol and trace bromphenol blue (188 mM Tris pH 6.8, 3% SDS, 24% glycerol, 25% v/v, β-mercaptoethanol). The stopped reaction was loaded directly onto a 18% polyacrylamide/tris/glycine gel without boiling. The gel was run at about 100 volts to permit proper separation, washed for five minutes in water, and equilibrated for five minutes in semi-dry blotting buffer (48 mM Tris base, 39 mM glycine, 20% methanol, 0.375% SDS). Reaction products were then blotted onto a nitrocellulose filter for 48 minutes at 20 volts in a Bio-Rad semi-dry blotting apparatus and visualized and/or quantitated by autoradiography.

[2] = molecular target: T1, his-catActRIIB kinase; experiment: Scintillation method kinase assay (TCA precipitation, filter plate); assay type: biochemical; conditions: target peptide 176 μM or MBP 2 μM, 10 μM ATP, [33P]-ATP, 80 min, room temperature
Description: A series of reaction mixtures comprising 25 mM HEPES (pH 7.3), 3 mM MgCl2, 1 mM MnCl2, 0.1 mM EDTA, 1 mM DTT, 0.2 mM sodium orthovanadate, 100 μg/ml BSA, 10 μM ATP, 0.25 μCi [^33P]y-ATP, and 16.5 μg/ml his-catActRIIB kinase was run in a total of 100 μl directly in a Durapore (Millipore) filter plate for 80 min at room temperature. The reaction was stopped by addition of an equal volume of ice cold TCA (10% or 25% v/v). After one hour at 4° C., the precipitate was collected under vacuum. The precipitate was washed five times with cold TCA. After drying overnight, scintillant was added to the well and plates counted in a Microbeta 1450 Trilux in the Paralux mode. Different reactions included either the target peptide (176 μM), MBP (2 μM), or no substrate.

[3] = molecular target: myelin basic protein
[4] = molecular target: T2, target peptide
T2 chain: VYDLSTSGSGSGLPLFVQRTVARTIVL

phosphorylation of substrate, labelled band visualized by autoradiography [1]: labelled target peptide
signal from labelled substrate by scintillation counting [2]: performed very well
Molecule: H2N-Val-Tyr-Asp-Leu-Ser-Thr-Ser-Gly-Ser-Gly-Ser-Gly-Leu-Pro-Leu-Phe-Val-Gln-Arg-Thr-Val-Ala-Arg-Thr-Ile-Val-Leu-COOH (H-VYDLSTSGSGSGLPLFVQRTVARTIVL-OH; not fully specified) [target peptide, 27 amino acid substrate peptide for the ActRIIB kinase assay]

B1: his-catActRIIB kinase (protein)
chain: YGHVDIHEDPGPPPPSPLVGLKPLQLLEIKARGRFGCVWKAQLMNDFVAVKIFPLQDKQSWQSEREIFSTPGMKHENLLQFIAAEKRGSNLEVELWLITAFHDKGSLTDYLKGNIITWNELCHVAETMSRGLSYLHEDVPWCRGEGHKPSIAHRDFKSKNVLLKSDLTAVLADFGLAVRFEPGKPPGDTHGQVGTRRYMAPEVLEGAINFQRDAFLRIDMYAMGLVLWELVSRCKAADGPVDEYMLPFEEEIGQHPSLEELQEVVVHKKMRPTIKDHWLKHPGLAQLCVTIEECWDHDAEARLSAGCVEERVSLIRRSVNGTTSDCLVSLVTSVTNVDLPPKESSI
phosphorylation of substrate, [32P]ATP autoradiography after gel electrophoresis and blotting [3]: In the reaction mixture comprising MBP, bands were visualized at 18 Kd and 40 Kd, corresponding to labelled MBP and autophosphorylated his-catActRIIB kinase, respectively
phosphorylation of substrate, [33P]ATP, TCA precipitation on filter plate, scintillation counting [3]: the reaction with MBP unexpectedly yields a negative result
phosphorylation of substrate, [32P]ATP autoradiography after gel electrophoresis and blotting [4]: In the reaction mixture comprising target peptide, bands were visualized at 3 Kd and 40 Kd, corresponding to labelled target peptide and autophosphorylated his-catActRIIB kinase, respectively
phosphorylation of substrate, [33P]ATP, TCA precipitation on filter plate, scintillation counting [4]: the reaction performed very well with the target peptide as a substrate

phosphorylation of substrate, labelled band visualized by autoradiography [1]: labelled MBP
signal from labelled substrate by scintillation counting [2]: negative result
B2: MBP: Myelin Basic Protein, a commonly used substrate for kinase assays (protein, UniProt P02687 1-169, looked up)
Myelin basic protein: AAQKRPSQRSKYLASASTMDHARHGFLPRHRDTGILDSLGRFFGSDRGAPKRGSGKDGHHAARTTHYGSLPQKAQGHRPQDENPVVHFFKNIVTPRTPPPSQGKGRGLSLSRFSWGAEGQKPGFGYGGRASDYKSAHKGLKGHDAQGTLSKIFKLGGRDSRSGSPMARR
